Assay results: paper PMC12724223

Target: T cell receptor subunit CD3ζ (human) (human (endogenous in primary CD4+ T cells))

With “SIVmac239 I123L L146F Nef (natural protein)” as the substance, how does the fold downregulation of cell surface CD3 relative to ΔNef, transduced primary huCD4+ T cells, flow cytometry (Fig. 5B) read?
Its fold downregulation of cell surface CD3 relative to ΔNef, transduced primary huCD4+ T cells, flow cytometry (Fig. 5B) is 2.7 fold.

Which fold downregulation of cell surface CD3 relative to ΔNef, transduced primary huCD4+ T cells, flow cytometry (Fig. 5B) does the source give for SIVmac239 WT Nef (natural protein) here?
Its fold downregulation of cell surface CD3 relative to ΔNef, transduced primary huCD4+ T cells, flow cytometry (Fig. 5B) is 15.2 fold.
